Target: human myosin VI heavy chain, full length, containing both the large-insertion (LI) and small-insertion (SI) regions (human) (UniProt Q9UM54)
Test: cryo-EM structure; single-particle cryo-EM of myosin VI/CaM in PB, TB + AMPPNP and PB + ATP, the three datasets combined; autoinhibited state, 3.54 Å (4.14 Å map with the SAH-E)

Chain of human myosin VI heavy chain, full length, containing both the large-insertion (LI) and small-insertion (SI) regions (human) (Q9UM54 other isoform, or with tags, fused parts or gaps): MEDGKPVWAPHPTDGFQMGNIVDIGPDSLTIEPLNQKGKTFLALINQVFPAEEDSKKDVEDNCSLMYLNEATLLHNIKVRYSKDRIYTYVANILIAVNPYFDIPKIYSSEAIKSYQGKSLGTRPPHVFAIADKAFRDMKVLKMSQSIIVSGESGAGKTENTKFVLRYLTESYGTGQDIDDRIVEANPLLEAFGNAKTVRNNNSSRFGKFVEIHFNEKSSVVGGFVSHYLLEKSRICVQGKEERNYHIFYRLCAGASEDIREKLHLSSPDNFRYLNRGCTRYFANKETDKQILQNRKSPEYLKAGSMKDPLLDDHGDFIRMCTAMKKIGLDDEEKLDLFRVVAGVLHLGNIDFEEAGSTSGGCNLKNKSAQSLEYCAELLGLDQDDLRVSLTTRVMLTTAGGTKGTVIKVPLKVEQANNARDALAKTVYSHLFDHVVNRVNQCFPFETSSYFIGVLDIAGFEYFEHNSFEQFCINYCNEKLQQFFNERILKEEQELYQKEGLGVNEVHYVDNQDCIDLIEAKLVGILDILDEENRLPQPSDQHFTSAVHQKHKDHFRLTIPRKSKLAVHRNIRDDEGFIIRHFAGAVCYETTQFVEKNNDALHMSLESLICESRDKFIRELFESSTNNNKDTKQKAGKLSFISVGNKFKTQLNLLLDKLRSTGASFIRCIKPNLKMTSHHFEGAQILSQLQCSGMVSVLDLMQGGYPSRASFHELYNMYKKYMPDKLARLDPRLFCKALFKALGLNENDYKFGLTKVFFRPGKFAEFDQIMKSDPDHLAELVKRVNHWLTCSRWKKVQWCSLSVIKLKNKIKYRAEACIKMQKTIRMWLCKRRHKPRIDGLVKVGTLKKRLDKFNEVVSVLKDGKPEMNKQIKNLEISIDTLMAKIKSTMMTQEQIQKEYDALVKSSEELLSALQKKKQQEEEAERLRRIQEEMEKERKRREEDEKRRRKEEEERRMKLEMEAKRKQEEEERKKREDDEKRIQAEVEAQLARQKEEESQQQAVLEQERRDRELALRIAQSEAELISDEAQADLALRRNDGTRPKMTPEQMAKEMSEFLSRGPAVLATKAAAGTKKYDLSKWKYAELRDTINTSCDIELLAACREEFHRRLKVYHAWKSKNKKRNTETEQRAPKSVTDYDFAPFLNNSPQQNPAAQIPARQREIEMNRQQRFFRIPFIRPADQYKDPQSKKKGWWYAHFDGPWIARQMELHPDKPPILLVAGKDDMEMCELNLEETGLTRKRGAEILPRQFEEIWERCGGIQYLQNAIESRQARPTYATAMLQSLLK

stoichiometry N: 2
Substance: calmodulin (CaM), light chain of myosin VI (from UniProt P0DP23 1-149) (natural protein)

From article PMC10853514
